First the molecules themselves.
B1: one-armed anti-EGFR SEED antibody with SEED CH3 domain-exchanged Fab, Variant 2 (antibody)
heavy: QVQLVQSGAEVKKPGASVKVSCKASGYTFTSHWMHWVRQAPGQGLEWIGEFNPSNGRTNYNEKFKSKATMTVDTSTNTAYMELSSLRSEDTAVYYCASRDYDYDGRYFDYWGQGTLVTVSSASTKGEPQVYTLPPPSEELALNELVTLTCLVKGFYPSDIAVEWLQGSQELPREKYLTWAPVLDSDGSFFLYSILRVAAEDWKKGDTFSCSVMHEALHNHYTQKSLDRSKSCDKTHTCPPCPAPELLGGPSVFLFPPKPKDTLMISRTPEVTCVVVDVSHEDPEVKFNWYVDGVEVHNAKTKPREEQYNSTYRVVSVLTVLHQDWLNGKEYKCKVSNKALPAPIEKTISKAKGQPFRPEVHLLPPSREEMTKNQVSLTCLARGFYPKDIAVEWESNGQPENNYKTTPSRQEPSQGTTTFAVTSKLTVDKSRWQQGNVFSCSVMHEALHNHYTQKTISLSPGK
light: DIQMTQSPSSLSASVGDRVTITCSASSSVTYMYWYQQKPGKAPKLLIYDTSNLASGVPSRFSGSGSGTDYTFTISSLQPEDIATYYCQQWSSHIFTFGQGTKVEIKRTVAPEVHLLPPSREEMTKNQVSLTCLARGFYPKDIAVEWESNGQPENNYKTTPSRQEPSQGTTTFAVTSKLTVDKSRWQQGNVFSCSVMHEALHNHYTQKTISLSGEC
chain: EPKSSDKTHTCPPCPAPELLGGPSVFLFPPKPKDTLMISRTPEVTCVVVDVSHEDPEVKFNWYVDGVEVHNAKTKPREEQYNSTYRVVSVLTVLHQDWLNGKEYKCKVSNKALPAPIEKTISKAKGQPREPQVYTLPPPSEELALNELVTLTCLVKGFYPSDIAVEWLQGSQELPREKYLTWAPVLDSDGSFFLYSILRVAAEDWKKGDTFSCSVMHEALHNHYTQKSLDRSPGK
notes: hu425 Fv; one Fab arm only; also called CH3-SEED variant 2
B2: Unengineered one-armed anti-EGFR antibody (CH1/CL hu425 Fab on SEED AG heavy chain, with huFc_GA SEED) (antibody)
heavy: QVQLVQSGAEVKKPGASVKVSCKASGYTFTSHWMHWVRQAPGQGLEWIGEFNPSNGRTNYNEKFKSKATMTVDTSTNTAYMELSSLRSEDTAVYYCASRDYDYDGRYFDYWGQGTLVTVSSASTKGPSVFPLAPSSKSTSGGTAALGCLVKDYFPEPVTVSWNSGALTSGVHTFPAVLQSSGLYSLSSVVTVPSSSLGTQTYICNVNHKPSNTKVDKKVEPKSCDKTHTCPPCPAPELLGGPSVFLFPPKPKDTLMISRTPEVTCVVVDVSHEDPEVKFNWYVDGVEVHNAKTKPREEQYNSTYRVVSVLTVLHQDWLNGKEYKCKVSNKALPAPIEKTISKAKGQPFRPEVHLLPPSREEMTKNQVSLTCLARGFYPKDIAVEWESNGQPENNYKTTPSRQEPSQGTTTFAVTSKLTVDKSRWQQGNVFSCSVMHEALHNHYTQKTISLSPGK
chain: EPKSSDKTHTCPPCPAPELLGGPSVFLFPPKPKDTLMISRTPEVTCVVVDVSHEDPEVKFNWYVDGVEVHNAKTKPREEQYNSTYRVVSVLTVLHQDWLNGKEYKCKVSNKALPAPIEKTISKAKGQPREPQVYTLPPPSEELALNELVTLTCLVKGFYPSDIAVEWLQGSQELPREKYLTWAPVLDSDGSFFLYSILRVAAEDWKKGDTFSCSVMHEALHNHYTQKSLDRSPGK
light: DIQMTQSPSSLSASVGDRVTITCSASSSVTYMYWYQQKPGKAPKLLIYDTSNLASGVPSRFSGSGSGTDYTFTISSLQPEDIATYYCQQWSSHIFTFGQGTKVEIKRTVAAPSVFIFPPSDEQLKSGTASVVCLLNNFYPREAKVQWKVDNALQSGNSQESVTEQDSKDSTYSLSSTLTLSKADYEKHKVYACEVTHQGLSSPVTKSFNRGEC
notes: One Fab arm only (monovalent); also called unengineered Fab one-armed anti-EGFR; control antibody
B3: One-armed anti-CD16 with the unengineered 3G8 Fab fused to the SEED AG heavy chain (antibody)
heavy: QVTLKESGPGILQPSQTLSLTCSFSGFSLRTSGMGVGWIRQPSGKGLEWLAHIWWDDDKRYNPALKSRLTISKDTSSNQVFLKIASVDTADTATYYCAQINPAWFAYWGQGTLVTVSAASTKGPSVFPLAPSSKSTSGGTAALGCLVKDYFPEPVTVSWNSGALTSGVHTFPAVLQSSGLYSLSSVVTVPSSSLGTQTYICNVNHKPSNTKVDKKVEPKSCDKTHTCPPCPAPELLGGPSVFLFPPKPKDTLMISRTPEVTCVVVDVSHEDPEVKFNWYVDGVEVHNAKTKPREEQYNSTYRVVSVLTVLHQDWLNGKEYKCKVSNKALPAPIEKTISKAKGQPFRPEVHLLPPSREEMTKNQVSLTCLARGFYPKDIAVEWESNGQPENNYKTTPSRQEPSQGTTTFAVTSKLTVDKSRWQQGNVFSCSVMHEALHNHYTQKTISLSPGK
chain: EPKSSDKTHTCPPCPAPELLGGPSVFLFPPKPKDTLMISRTPEVTCVVVDVSHEDPEVKFNWYVDGVEVHNAKTKPREEQYNSTYRVVSVLTVLHQDWLNGKEYKCKVSNKALPAPIEKTISKAKGQPREPQVYTLPPPSEELALNELVTLTCLVKGFYPSDIAVEWLQGSQELPREKYLTWAPVLDSDGSFFLYSILRVAAEDWKKGDTFSCSVMHEALHNHYTQKSLDRSPGK
light: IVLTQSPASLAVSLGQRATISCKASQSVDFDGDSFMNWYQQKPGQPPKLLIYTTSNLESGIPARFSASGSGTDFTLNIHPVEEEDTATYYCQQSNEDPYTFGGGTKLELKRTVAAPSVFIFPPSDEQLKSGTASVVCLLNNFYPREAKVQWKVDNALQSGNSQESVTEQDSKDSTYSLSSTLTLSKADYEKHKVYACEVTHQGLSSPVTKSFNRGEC
notes: One Fab arm only; also called one-armed anti-CD16 antibody
B4: one-armed domain-exchanged KiH antibody with SEED CH3 domains in the Fab, Variant 1 (antibody)
heavy: not shown
light: DIQMTQSPSSLSASVGDRVTITCSASSSVTYMYWYQQKPGKAPKLLIYDTSNLASGVPSRFSGSGSGTDYTFTISSLQPEDIATYYCQQWSSHIFTFGQGTKVEIKRTVAEPQVYTLPPPSEELALNELVTLTCLVKGFYPSDIAVEWLQGSQELPREKYLTWAPVLDSDGSFFLYSILRVAAEDWKKGDTFSCSVMHEALHNHYTQKSLDRSGEC
chain: not shown
notes: hu425 Fv; one Fab arm only; also called one-armed KiH antibody, CH3-SEED variant 1
B5: one-armed domain-exchanged KiH antibody with Charge pair CH3 domains in the Fab, Variant 1 (antibody)
heavy: not shown
light: DIQMTQSPSSLSASVGDRVTITCSASSSVTYMYWYQQKPGKAPKLLIYDTSNLASGVPSRFSGSGSGTDYTFTISSLQPEDIATYYCQQWSSHIFTFGQGTKVEIKRTVAEPQVYTLPPSREEMTKNQVSLTCLVKGFYPSDIAVEWESNGQPENNYDTTPPVLDSDGSFFLYSDLTVDKSRWQQGNVFSCSVMHEALHNHYTQKSLSLSGEC
chain: not shown
notes: hu425 Fv; one Fab arm only; also called one-armed KiH antibody, Charge pair variant 1
B6: one-armed domain-exchanged KiH antibody with Charge pair CH3 domains in the Fab, Variant 2 (antibody)
heavy: not shown
light: DIQMTQSPSSLSASVGDRVTITCSASSSVTYMYWYQQKPGKAPKLLIYDTSNLASGVPSRFSGSGSGTDYTFTISSLQPEDIATYYCQQWSSHIFTFGQGTKVEIKRTVAEPQVYTLPPSRKEMTKNQVSLTCLVKGFYPSDIAVEWESNGQPENNYKTTPPVLKSDGSFFLYSKLTVDKSRWQQGNVFSCSVMHEALHNHYTQKSLSLSGEC
chain: not shown
notes: hu425 Fv; one Fab arm only; also called one-armed KiH antibody, Charge pair variant 2
B7: one-armed domain-exchanged KiH antibody with Azymetric CH3 domains in the Fab, Variant 2 (antibody)
heavy: not shown
light: DIQMTQSPSSLSASVGDRVTITCSASSSVTYMYWYQQKPGKAPKLLIYDTSNLASGVPSRFSGSGSGTDYTFTISSLQPEDIATYYCQQWSSHIFTFGQGTKVEIKRTVAEPQVYVYPPSREEMTKNQVSLTCLVKGFYPSDIAVEWESNGQPENNYKTTPPVLDSDGSFALVSKLTVDKSRWQQGNVFSCSVMHEALHNHYTQKSLSLSGEC
chain: not shown
notes: hu425 Fv; one Fab arm only; also called one-armed KiH antibody, CH3-Azymetric variant 2
B8: one-armed domain-exchanged KiH antibody with Azymetric CH3 domains in the Fab, Variant 1 (antibody)
heavy: not shown
light: DIQMTQSPSSLSASVGDRVTITCSASSSVTYMYWYQQKPGKAPKLLIYDTSNLASGVPSRFSGSGSGTDYTFTISSLQPEDIATYYCQQWSSHIFTFGQGTKVEIKRTVAEPQVYVLPPSREEMTKNQVSLLCLVKGFYPSDIAVEWESNGQPENNYLTWPPVLDSDGSFFLYSKLTVDKSRWQQGNVFSCSVMHEALHNHYTQKSLSLSGEC
chain: not shown
notes: hu425 Fv; one Fab arm only; also called one-armed KiH antibody, CH3-Azymetric variant 1
B9: one-armed domain-exchanged KiH antibody with SEED CH3 domains in the Fab, Variant 2 (antibody)
heavy: not shown
light: DIQMTQSPSSLSASVGDRVTITCSASSSVTYMYWYQQKPGKAPKLLIYDTSNLASGVPSRFSGSGSGTDYTFTISSLQPEDIATYYCQQWSSHIFTFGQGTKVEIKRTVAPEVHLLPPSREEMTKNQVSLTCLARGFYPKDIAVEWESNGQPENNYKTTPSRQEPSQGTTTFAVTSKLTVDKSRWQQGNVFSCSVMHEALHNHYTQKTISLSGEC
chain: not shown
notes: hu425 Fv; one Fab arm only; also called one-armed KiH antibody, CH3-SEED variant 2

For nine molecules, binding result and IC50 results are on record in patent US20180016354A1 (Merck KGaA, published 2018).

For the first assay, the target named is T1, EGFR (on EGFR-expressing A431 cells) (UniProt P00533 25-1210, limits assumed).
T1 construct: whole, on cells; A431 is a human cell line; also called EGFR-positive cells; EGFR-overexpressing A431 cells
Briefly: flow cytometry on A431 cells.
For B1, the binding result is recorded as “binds”.
B2: the binding result is reported as “binds”.

In a further assay the target is T2, CD16a receptor (FcγIIIa) (UniProt P08637 17-254, limits assumed).
T2 construct: whole, on cells
T2 sequence (P08637 17-254 limits assumed): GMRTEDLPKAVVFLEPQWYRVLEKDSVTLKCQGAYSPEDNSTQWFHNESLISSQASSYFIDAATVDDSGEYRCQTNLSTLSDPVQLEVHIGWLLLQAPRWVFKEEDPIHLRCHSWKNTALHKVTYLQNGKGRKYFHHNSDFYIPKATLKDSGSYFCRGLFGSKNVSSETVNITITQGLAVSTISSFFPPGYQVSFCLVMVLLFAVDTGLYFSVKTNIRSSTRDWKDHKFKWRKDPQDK
Briefly: CD16a HTRF cellular binding assay, competition with labeled human IgG. As to the method:
FIG. 14: Binding of antibodies to CD16a receptor. Binding was measured using CD16a HTRF cellular binding assay (CisBio). Measurement was performed in duplicates.
Background: Time-resolved FRET reads energy transfer from a long-lived donor to a nearby acceptor.
Regarding B3, the IC50 (as a rule, the midpoint of a concentration-inhibition curve) is ~0.1 nM.

A further assay has as its target T1, EGFR (on EGFR-expressing A431 cells). Briefly: flow cytometry on EGFR-positive A431 cells. A general note: A flow cytometer gives signals particle by particle.
Take B4: the binding result was “binds”.
Consider B5, for which the binding result is “binds”.
On to B6, for which the binding result is listed as “binds”.
Same read-out and setting: next, B7: “binds”.
Regarding B8, the binding result is recorded as “binds”.
As to B9, the binding result is “binds”.
